Source: patent US20250237662A1
One block for each binder: values may come before it.

Assays:
[1] = molecular target: humanized development candidate monoclonal antibody IgG4 (hIgG4); experiment: Gyrolab, mAb as capture, hIgG4 8 ng/ml
[2] = molecular target: humanized development candidate monoclonal antibody IgG4 (hIgG4); experiment: Gyrolab, mAb as capture, hIgG4 40 ng/ml
[3] = molecular target: drug: a monoclonal antibody of human IgG4 isotype (PandA assay); experiment: PandA assay, monkey matrix, mAb 1 ug/ml
[4] = molecular target: drug: a monoclonal antibody of human IgG4 isotype (PandA assay); experiment: PandA assay, monkey matrix, mAb 5 ug/ml
[5] = molecular target: humanized development candidate monoclonal antibody IgG4 (hIgG4); experiment: Gyrolab, mAb as capture, hIgG4 1.6 ng/ml
[6] = molecular target: humanized development candidate monoclonal antibody IgG4 (hIgG4); experiment: Gyrolab, mAb as capture, hIgG4 200 ng/ml
[7] = molecular target: humanized development candidate monoclonal antibody IgG4 (hIgG4); experiment: Gyrolab, mAb as capture, hIgG4 0.32 ng/ml
[8] = molecular target: humanized development candidate monoclonal antibody IgG4 (hIgG4); experiment: Gyrolab, mAb as capture, hIgG4 1000 ng/ml
[9] = molecular target: humanized development candidate monoclonal antibody IgG4 (hIgG4); experiment: Gyrolab, mAb as capture, hIgG4 5000 ng/ml
[10] = molecular target: drug: a monoclonal antibody of human IgG4 isotype (PandA assay); experiment: PandA assay, mAb 1 ug/ml in monkey plasma
[11] = molecular target: drug: a monoclonal antibody of human IgG4 isotype (PandA assay); experiment: PandA assay, monkey matrix, mAb 0.5 ug/ml
[12] = molecular target: drug: a monoclonal antibody of human IgG4 isotype (PandA assay); experiment: PandA assay, monkey matrix, mAb 0.75 ug/ml
[13] = molecular target: drug: a monoclonal antibody of human IgG4 isotype (PandA assay); experiment: PandA assay, mAb 0.5 ug/ml in monkey plasma
[14] = molecular target: drug: a monoclonal antibody of human IgG4 isotype (PandA assay); experiment: PandA assay, mAb 0.75 ug/ml in monkey plasma
[15] = molecular target: humanized therapeutic monoclonal antibody IgG1 (hIgG1); experiment: direct ELISA, hIgG1 coated, B-cell culture medium
[16] = molecular target: humanized development candidate monoclonal antibody IgG4 (hIgG4); experiment: direct ELISA, hIgG4 coated, B-cell culture medium
[17] = molecular target: humanized development candidate monoclonal antibody IgG4 (hIgG4); experiment: Gyrolab, mAb as capture, hIgG4 8 ng/ml, against the blank
[18] = molecular target: humanized development candidate monoclonal antibody IgG4 (hIgG4); experiment: Gyrolab, mAb as capture, hIgG4 40 ng/ml, against the blank
[19] = molecular target: humanized development candidate monoclonal antibody IgG4 (hIgG4); experiment: Gyrolab, mAb as capture, hIgG4 1.6 ng/ml, against the blank
[20] = molecular target: humanized development candidate monoclonal antibody IgG4 (hIgG4); experiment: Gyrolab, mAb as capture, hIgG4 200 ng/ml, against the blank
[21] = molecular target: humanized development candidate monoclonal antibody IgG4 (hIgG4); experiment: Gyrolab, mAb as capture, hIgG4 0.32 ng/ml, against the blank
[22] = molecular target: humanized development candidate monoclonal antibody IgG4 (hIgG4); experiment: Gyrolab, mAb as capture, hIgG4 1000 ng/ml, against the blank
[23] = molecular target: humanized development candidate monoclonal antibody IgG4 (hIgG4); experiment: Gyrolab, mAb as capture, hIgG4 5000 ng/ml, against the blank
[24] = molecular target: cynomolgus monkey IgG (cynoIgG); experiment: direct ELISA, cynoIgG coated (hIgG1/CynoIgG screen), B-cell culture medium
[25] = molecular target: cynomolgus monkey IgG (cynoIgG); experiment: direct ELISA, cynoIgG coated (hIgG4/CynoIgG screen), B-cell culture medium
[26] = molecular target: humanized therapeutic monoclonal antibody IgG1 (hIgG1); experiment: ELISA, medium of transfected HEK293F; signal on hIgG1 over signal on cynoIgG
[27] = molecular target: humanized development candidate monoclonal antibody IgG4 (hIgG4); experiment: ELISA, medium of transfected HEK293F; signal on hIgG4 over signal on cynoIgG
[28] = molecular target: drug: a monoclonal antibody of human IgG4 isotype (PandA assay); experiment: PandA assay, signal to noise against the negative control
[29] = molecular target: humanized development candidate monoclonal antibody IgG4 (hIgG4); experiment: SPR (Biacore T200), mAb captured by anti-rabbit mAb on CM5, antigen 80-0 nM, 1:1 fit
[30] = molecular target: humanized therapeutic monoclonal antibody IgG1 (hIgG1); experiment: as above
[31] = molecular target: internal research reagent human Fab (hFab); experiment: as above
[32] = molecular target: drug: a monoclonal antibody of human IgG4 isotype (PandA assay); experiment: PandA assay (PEG precipitation, acid dissociation, MSD plate, sulfo-TAG-drug), mAb 5 ug/ml in monkey plasma
[33] = molecular target: humanized development candidate monoclonal antibody IgG4 (hIgG4); experiment: Gyrolab immunoassay quality control, biotinylated 16F5 as capture, hIgG4 in matrix with 4% cynomolgus monkey serum, Alexa Fluor 647 goat anti-human IgG detection

B1: rabbit anti-human IgG monoclonal antibody clone 11G5 (antibody, V domains shown)
VH: QSLEESGGDLVKPGASLTLTCTASGFSFSSSYYMCWVRQAPGKRLEWIACIYGGGLSNTYYAGWAKGRFTISKTSSTTVTLQMTSLTAADTATYFCARDATSGDYLNLWGPGTLVTVSS
VL: AVVMTQTASPVSGAVGGTVTINCQASQSISASALSWYQQKPGQPPKLLIYAASTLESGVPSRFKGSGSGTQFTLTISGVQCDDAATYYCAYDGYRLSSADNIFGGGTEVVVKG
- Av. Resp. [1]: 20.3
- Av. Resp. [2]: 60.9
- S/N (monkey) [3]: 2.4
- S/N (monkey) [4]: 9.76
- Av. Resp. [5]: 9.8
- Av. Resp. [6]: 184
- Av. Resp. [7]: 7.5
- Av. Resp. [8]: 394
- Av. Resp. [9]: 468
- ECL Signal [10]: 320
- S/N (monkey) [11]: 1.58
- S/N (monkey) [12]: 1.92
- ECL Signal [13]: 171
- ECL Signal [14]: 257
- OD450 [15]: 1.25 OD450
- OD450 [16]: 1.32 OD450
- S/B [17]: 2.7
- S/B [18]: 8.2
- S/B [19]: 1.3
- S/B [20]: 24.8
- S/B [21]: 1
- S/B [22]: 53.1
- S/B [23]: 63.3
- OD450 [24]: 0.161 OD450
- OD450 [25]: 0.159 OD450
- ELISA signal ratio hIgG1/CynoIgG [26]: 4.94
- ELISA signal ratio hIgG4/CynoIgG [27]: 5.19
- S/N [28]: 1.8
- Kd [29]: 0.0429 nM
- koff [29]: 5.8e-06 s⁻¹
- kon [29]: 135000 M⁻¹ s⁻¹
- Kd [30]: 0.187 nM
- koff [30]: 2.52e-05 s⁻¹
- kon [30]: 135000 M⁻¹ s⁻¹
- Kd [31]: 0.591 nM
- koff [31]: 0.000531 s⁻¹
- kon [31]: 899000 M⁻¹ s⁻¹
- ECL Signal [32]: 1550

B2: rabbit anti-human IgG monoclonal antibody clone 9E6 (antibody, V domains shown)
VH: QSLEESGGDLVKPGASLTLTCKASGFDFSSSYYMCWVRQAPGRLEWIACIYGGGLSNTYYAGWAKGRFTISKTSSTTVTLQMTSLTVADTATYFCARDAGTSGDYLNLWGPGTLVTVSS
VL: AVVMTQTASPVSGAVGGTVTINCQASQSISSSYLSWYQQKPGQPPKLLIYGASTLASGVPSRFKGSGSGTQFTLTISGVQCDDAATYYCAYDAYRLSSPDNIFGGGTEVVVKG
- Av. Resp. [1]: 8.6
- Av. Resp. [2]: 28.4
- Av. Resp. [5]: 4.1
- Av. Resp. [6]: 103
- Av. Resp. [7]: 3
- Av. Resp. [8]: 256
- Av. Resp. [9]: 327
- OD450 [15]: 1.28 OD450
- OD450 [16]: 1.28 OD450
- S/B [17]: 3
- S/B [18]: 9.8
- S/B [19]: 1.4
- S/B [20]: 35.5
- S/B [21]: 1.1
- S/B [22]: 88.2
- S/B [23]: 113
- OD450 [24]: 0.14 OD450
- OD450 [25]: 0.146 OD450
- ELISA signal ratio hIgG1/CynoIgG [26]: 10.2
- ELISA signal ratio hIgG4/CynoIgG [27]: 9.53
- Kd [29]: 0.196 nM
- koff [29]: 2.68e-05 s⁻¹
- kon [29]: 137000 M⁻¹ s⁻¹
- Kd [30]: 0.426 nM
- koff [30]: 6.1e-05 s⁻¹
- kon [30]: 143000 M⁻¹ s⁻¹
- Kd [31]: 0.518 nM
- koff [31]: 0.00603 s⁻¹
- kon [31]: 1.16e+07 M⁻¹ s⁻¹

B4: rabbit anti-human IgG monoclonal antibody clone 19B1 (antibody, V domains shown)
VH: QEQLVESGGGLVQPEGSLTLTCTASGFSFSDSYYMCWVRQAPGKGLEWIACIYGGTITNTYYASWAKGRFTISKTSSTTVTLQMTSLTAADTATYFCARDLGAAGDAYNLWGPGTLVTVSS
VL: ASDMTQTPASVSEPVGGTVTIKCQASENIYSSLAWYQQKPGQPPKLLIYDASNLASGVPSRFSGSGSGTEFTLTISDLECADAATYYCQCTYRSSSSSYAFGGGTEVVVKG
- Av. Resp. [1]: 6.2
- Av. Resp. [2]: 22.8
- Av. Resp. [5]: 2.7
- Av. Resp. [6]: 82.9
- Av. Resp. [7]: 1.8
- Av. Resp. [8]: 203
- Av. Resp. [9]: 246
- OD450 [15]: 1.15 OD450
- OD450 [16]: 0.954 OD450
- OD450 [24]: 0.055 OD450
- OD450 [25]: 0.102 OD450
- Kd [29]: 0.067 nM
- Kd [30]: 0.239 nM
- Kd [31]: 0.54 nM

Continued, values first:

- Av. Resp. [1]: 18.5
- Av. Resp. [2]: 64.2
- Av. Resp. [5]: 7
- Av. Resp. [6]: 197
- Av. Resp. [7]: 4.4
- Av. Resp. [8]: 369
- Av. Resp. [9]: 385
- OD450 [15]: 1.39 OD450
- OD450 [16]: 1.37 OD450
- S/B [17]: 4.7
- S/B [18]: 16.4
- S/B [19]: 1.8
- S/B [20]: 50.5
- S/B [21]: 1.1
- S/B [22]: 94.4
- S/B [23]: 98.6
- OD450 [24]: 0.184 OD450
- OD450 [25]: 0.154 OD450
- ELISA signal ratio hIgG1/CynoIgG [26]: 5.9
- ELISA signal ratio hIgG4/CynoIgG [27]: 6.33
- Kd [29]: 0.514 nM
- koff [29]: 8.09e-05 s⁻¹
- kon [29]: 157000 M⁻¹ s⁻¹
- Kd [30]: 0.127 nM
- koff [30]: 2.21e-05 s⁻¹
- kon [30]: 173000 M⁻¹ s⁻¹
- Kd [31]: 1.93 nM
- koff [31]: 0.00584 s⁻¹
- kon [31]: 3.02e+06 M⁻¹ s⁻¹
- Average Response (HQC, expected conc 750 ng/mL) [33]: 414
- Average Response (LQC, expected conc 40.0 ng/mL) [33]: 70.3
- Average Response (MQC, expected conc 0.600 ng/mL) [33]: 5.85
- Response (HQC, expected conc 750 ng/mL, CD struct C1) [33]: 400
- Response (HQC, expected conc 750 ng/mL, CD struct C2) [33]: 427
- Response (LQC, expected conc 40.0 ng/mL, CD struct C3) [33]: 68.6
- Response (LQC, expected conc 40.0 ng/mL, CD struct C4) [33]: 72
- Response (MQC, expected conc 0.600 ng/mL, CD struct C5) [33]: 5.88
- Response (MQC, expected conc 0.600 ng/mL, CD struct C6) [33]: 5.83
- S/B (HQC, expected conc 750 ng/mL, CD struct C1) [33]: 87.7
- S/B (HQC, expected conc 750 ng/mL, CD struct C2) [33]: 93.6
- S/B (LQC, expected conc 40.0 ng/mL, CD struct C3) [33]: 15
- S/B (LQC, expected conc 40.0 ng/mL, CD struct C4) [33]: 15.8
- S/B (MQC, expected conc 0.600 ng/mL, CD struct C5) [33]: 1.29
- S/B (MQC, expected conc 0.600 ng/mL, CD struct C6) [33]: 1.28
B3: rabbit anti-human IgG monoclonal antibody clone 16F5 (antibody, V domains shown)
VH: QQQLEESGGGLVKPGGTLTLTCKASGIDFSNYYYMCWVRQAPGKGLELIACIYTGSSGSTWYATWAKGRFTISKTSSTTVTLQMTSLTAADTATYFCARDRDVGSLYDSLDLWGQGTLVTVSP
VL: AYDMTQTPASVEAAVGGTVTINCQASQSINNWLSWYQQKPGQRPKLLIYQASTLASGVSSRFKGSGSGTHFTLTISDLECADAATYYCQQGWSIDDIDNAFGGGTEVVVKG

- Av. Resp. [1]: 12.8
- Av. Resp. [2]: 45.1
- Av. Resp. [5]: 5
- Av. Resp. [6]: 148
- Av. Resp. [7]: 3.1
- Av. Resp. [8]: 289
- Av. Resp. [9]: 330
- OD450 [15]: 1.11 OD450
- OD450 [16]: 0.91 OD450
- OD450 [24]: 0.089 OD450
- OD450 [25]: 0.092 OD450
- Kd [29]: 0.279 nM
- Kd [30]: 0.619 nM
- Kd [31]: 1.12 nM
B5: rabbit anti-human IgG monoclonal antibody clone 11F9 (antibody, V domains shown)
VH: QQQLEESGGGLVQPEGSLTLTCIASGFSFSSSHWICWVRQAPGKGLEWIACMSTSSGSTYDANWAKGRFTISKTSSTTVTLQMTSLTAADTATYFCARDVGGSTTYFDLWGPGTLVTVSS
VL: AYDMTQTPASVSEPVGGTVTIKCQASQSISNELSWYQQKPGQPPKLLIYRASTLASGVPSRFKGSGSGTQFTLTINGVECADAATYYCQQGYSISNVDNTFGGGTEVVVKG
